Results from the nanobody polyreactivity screen of Harvey et al. (2022).

Test: yeast display, Sf9 membrane polyspecificity reagent, FACS + sequencing; frameworks hold sequencing errors
Method in brief: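 A nanobody's polyreactivity label depends on the gate it was sorted from. Yeast display cells were stained with 10% biotinylated, detergent-solubilized Sf9 membrane reagent for 1 hour at 4 °C, enriched on streptavidin microbeads and sorted by FACS. The low and high (top ~1%) gates were set on anti-HA fluorescence for expression and streptavidin fluorescence for reagent binding.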

Sequence | polyreactivity (PSR sort gate)
QVQLVESGGGLVQAGGSLRLSCAASGITFWFNAMGWYRQAPGQERELVAAITSGVDTNYADSVKGRFTISRDNAKNTVYLQMNSLIPEDTAVYYCAAQGGRLKRGRTTSDYWGQGTQVTVSS | low polyreactivity
QVQLVESGGGLVQAGGSLRLSCASSGRIFYGYAMVWYRQAPGKERELVAAIRWYGGNTYYADSVKGRFTISRDNAKNTVYLQMNSLKPEDTAVYYCAARAYYARFVMGYWGQGTQVSVSS | high polyreactivity
QVQLVESGGGLVQAGGSLRLSCAASGSTFKLNAMGWYRQAPGKERELLASISTGASTNYADSVKGRFTISLDNAKNTVYVQMNSLNPEDTAVYYCAAQYPFAGYYITQYEYDYWGQGTQVTVSS | low polyreactivity
QVQLVESGGGLVQAGGSLRLSCAASGSTFVGYAMGWYRPAPGKDRELFAAITRGGGSTYYADSVKWRFTISRDNAKNTVYLQINSLKPEDTAVYYCAAYQHPGLRTSYEYWGQGTQVTVSS | low polyreactivity
QVQLVESGGGLVQAGGSLRLSCAASGNTFWQYAMGWYRQAPGKERELVAAITRSTGSTYYADSVKGRFTISRDNAKNTVYLQMNSLKPEDTAVYYCAADFYRHYFRVDSWGQGTQVTVSS | low polyreactivity
QVQLVESGGGVVHAGGSLRLSCAASGRIFRKYAMGWYRQAPGKESEFVAAITWSGGSTYYADSVKGRFTISRDNAKNTVYLQMNSLKPEDTAVYYCNAENGYSWDVFSDYWGQGTQVTVSS | low polyreactivity
QVQLVESGGGLVQAGGSLRLSCAASGRIFGRYAMGWYRQAPGKERELVAAITSSGGSTYYADSVKGRFTISRDNAKNTVYLQMNSLKPEDTAVYYCAADSQYKYDYWGQGTQVTVSS | high polyreactivity
QVQLVESGGGLVQAGGSLRLSCSASGFIFPRYTMGWYRQAPGKERELVAGITLRGGSTYYADSVKGRFTISRDNAKNTVYLQMNSLKPDDTAVYYCARGISRGRSFGIGYDYWGQGTQVTVSS | low polyreactivity
QVQLVESGAGLVQAGGSLRISCAASVITFIPYAMGWYRQAPGKERELLASISDGGGTNYADSVKGRFTISRDNAKNTVYLQMNSLKTEDTAVYYCATDASTYAYYGGYYWGHGTQVTVSS | low polyreactivity
QVQRVESAGGLVQARGSLRLSSAASGRIFKAYAMGCYRQAPGKERELVAAISRSGGNTYYADSVKGRFTISRDNAKYTVYLQLNSLKPEETAVYYCAARRFWGSDYDYWGQGTQVTVSS | high polyreactivity
QVQLVESGGGLVQAGGSLRLSCAASGITFYGYTMGWYRQAPGKERELVAAITSGGITYYADSVKGRFTISRDNAKNTVYLQMNSLKPEDTAVYYCNADDVWYEYDYWGEGTQVTVSS | high polyreactivity
QVQLVESGGGLVQARGSLRLSCAASGSTFGRYAMGSYRQAPGIERELVAAISLGTTTNYADSVKGRFTISRDNAKNTVYLQMNSLKPEDTAVSYCAADQPSKRYYYWGQGTQVTVSS | low polyreactivity
QVQLVESGGGLVQAGGSLRLSCAASGFTFRAYTMGWYRQAPGKERELVAAITYSGGRTYYADSVKGRFTISRDNAKNTVYLQMNSLKPEDTAVYYCATRGWALSEYYYWGQGTQVTVSS | high polyreactivity
QVQLVESGGGLVQAGGSLLLSCAASGGTIRYYAMGWSRQSPGKERELVAAISRGGTNTYYADSVKGRFTISRDNAKNTVYLQRNSLKPDDTAVYYCSAKRYSRYNYWGQGTQVTVSS | high polyreactivity
QVQLVESGGGLVQAGGSLRLSCAASGLTFRPYAMGWYRPAPGKERELVAAISTTGGSTYYADSVKGRFTISRDNAKNTVYLQMNSLKPEDTAVYYCAAPTSQRRVLSYRPYGYWGQGTQVTVSS | high polyreactivity
QVQLVESGGGLVQAGGSLRLTCAASGRIFAVYAMGWYRQAPGKERELVATISSSGSTHYADSVKGRFTISRDNAKNTVYLQMNSLKPEDTAVYYCNAGGSELKLGHDYWGQGTQVTVSS | low polyreactivity

Sequence | polyreactivity (PSR sort gate)
QVQLVESGVGLVQARGSLRLSCASSGSILIYNAMGWYRQAPGKVRELVAGISRRGDSTYYADSVKGRFTISRDNAKKTVYLQMNSLKPEDTAVYYCAALGKYIVAWSGDYWGQGTQVTVSS | low polyreactivity
QVQLVESGGGLVQAGGSLRLSCAASVRTLPSYAMGWYRQAPGKERELVAAISQSGGSTYYADSVKGRFTISRDNAKNTVYLQMNSLKPEDTAVYYCNAGYYYKYSPRRFDYWGQGTQVTVSS | high polyreactivity
QVQIVESWGGLVQAGGSLRVSCATSGGIFRFNAMGSYRHAPGKERELVAAITSSVGSTYYADSVKGRFTFSRDNAKNTVDLQLNSLKPEDTAVDDCAAVITRVAIVFSTEYDYWGQGTQVTVSS | low polyreactivity
QVQLVESGGGLVQAGGSLRLSCAASGFIFRNYALGWYRQAPGTERELVAAITGRGTSTYYADSVKGRFTISRDNAKNTVYLQMNSLKPEDTAVYYCAARSLALVYRKYDYWGQGTQVTVSS | high polyreactivity
QVQLVESGGGLVQAGGSLRLSCAASGLIFRTYTMGWYRQAPGKERELVATITRRGGTTYYADSVKGRFTISRDNAKNTVYLQMKSLKPEDTAVYYCAKSPYYTWKYDYWGQGTQVTVSS | high polyreactivity
QVQLVESGGALDQARGSLSLSCAASGFLFGQNAMVWSRQAPGKLREFVATNNRSGGSTYYADSVKGRFTISRDNAKNTVYVQMNSLKPEDTAVYYCAKGPRMSSSLRYSAYWIMNYWGQGTQVTVSS | high polyreactivity
QVQLVESGGGLVQAGGSLRLSCAASGRIFYVNVMGWYRQAPGKERELVAAIYWSDGSTYYADSVKGRFTISRDNAKNTVYLQMNSLKPEDTAVYYCNRRGPYGYKAWAIGTIGDLDYWGQGTQVTVSS | low polyreactivity
QVQLVESCGGLVQAGGSLRLSCAASGRTFYGYAMGWYRQAPGKERELVAAITASGGSTNYADSVKGRFTISRDNAKNTVYLQMNSLKPEDTAVYYCAARVYYLGQFYWYGYWGQGTQVTVSS | high polyreactivity
QVQLVESGGGLVQAGGSLRLSCAASGRTFGIYAMGWYRQAPGKERELVAAIRWRDGSTYYADSVKGRFTISRDNAKNTVYLQMNSLKPEDTAVYYCAATSRVYVRGSYWKYGYWGQGTQVTVSS | high polyreactivity
QVQLVESGGGLVQAGGSLRLSCAASGLTFGGNAMGWYSQAPGKERELVAALSWSDDTTDYADSVKGRFTISRDNAKYTVYLQMNSLKPEDTAVYYCAARLPFEHVDYWGQGTQVTVSS | low polyreactivity
QVQLVESGGGLVQAGGSLRLTCAASGSIFWRNTMGWYRQAPGKERELVAAIRNVGSTYYADSVKGRFTISRDNAKNTVYLQMNSLKPEDTAVYYCAVVYPARGSGNDSWGQGSQVTVSS | high polyreactivity
QFQLVESGGGLVQAGGSLRLSCAASGRIFYRNAMGWYRQAPGKERELVAAINQTGGSTYYADSVKGRFTISGDNAKNTVYLQMNSLKPDDTAVYYCAVLGQVPTGSSRRYYWGQGTQVTVSS | high polyreactivity
QVQLVESGGGLVQAGCSLRLSCAASGRTFVQYFMGWYRQAPGKERELVAAITSSGGSTYADSVKGRFTISRDNAKNTVFLHMNSLKPEDTAVYYCAADYLDGVGDVEHDYWGQGTQVTVSS | low polyreactivity
QVQHGESGGGLVQAGGSLRLSCAASGRIFYYYAMGWYRQAPGKERELVAAITWNAGITYYADSVKGRFTISRDNAKNTVYLQMNSLKPEDSAVYYCAASRWARGRDYWGQGTQVTVSS | high polyreactivity
QVQLVESGGGLVQAGGSLRLSCAASGRTFYPYAMGWYRQAPGKERELVAAISSSGGSTYYADSVKGRFTISRDNAKNTVYLQRNSLKPEYTPVYYCASYLRPGGNYYWGQGTQVTVSS | high polyreactivity
QVQPVESGGGLVQAGGSLRLSCAASGRIFGDYAMGWYRQAPGKERELVAAINCSGTSTNYADSVKGRFTISRDNAKYTVYLEMNSLKPEFTAVYYCNAEGTYRPEYDSWVQGTQVTVSS | low polyreactivity
